Experimental data: IntAct's records for PubMed 29611543

B1: Triggering receptor expressed on myeloid cells 2 (Homo sapiens), Q9NZC2 (parent)
chain: MEPLRLLILLFVTELSGAHNTTVFQGVAGQSLQVSCPYDSMKHWGRRKAWCRQLGEKGPCQRVVSTHNLWLLSFLRRWNGSTAITDDTLGGTLTITLRNLQPHDAGLYQCQSLHGSEADTLRKVLVEVLADPLDHRDAGDLWFPGESESFEDAHVEHSISRSLLEGEIPFPPTSILLLLACIFLIKILAASALWAAAWHGQKPGTHPPSELDCGHDPGYQLQTLPGLRDT

Variants of: B1
Details: with psn1_human PSEN1, P49768

effect of a mutation on the interaction	Variant
with no effect	MEPLRLLILLFVTELSGAHNTTVFQGVAGQSLQVSCPYDSMKHWGRHKAWCRQLGEKGPCQRVVSTHNLWLLSFLRRWNGSTAITDDTLGGTLTITLRNLQPHDAGLYQCQSLHGSEADTLRKVLVEVLADPLDHRDAGDLWFPGESESFEDAHVEHSISRSLLEGEIPFPPTSILLLLACIFLIKILAASALWAAAWHGQKPGTHPPSELDCGHDPGYQLQTLPGLRDT [R47H]
with no effect	MEPLRLLILLFVTELSGAHNTTVFQGVAGQSLQVSCPYDSMKHWGRRKAWCRQLGEKGPCQRVVSMHNLWLLSFLRRWNGSTAITDDTLGGTLTITLRNLQPHDAGLYQCQSLHGSEADTLRKVLVEVLADPLDHRDAGDLWFPGESESFEDAHVEHSISRSLLEGEIPFPPTSILLLLACIFLIKILAASALWAAAWHGQKPGTHPPSELDCGHDPGYQLQTLPGLRDT [T66M]
with no effect	MEPLRLLILLFVTELSGAHNTTVFQGVAGQSLQVSCPYDSMKHWGRRKAWCRQLGEKGPCQRVVSTHNLWLLSFLRRWNGSTAITDDTLGGTLTIKLRNLQPHDAGLYQCQSLHGSEADTLRKVLVEVLADPLDHRDAGDLWFPGESESFEDAHVEHSISRSLLEGEIPFPPTSILLLLACIFLIKILAASALWAAAWHGQKPGTHPPSELDCGHDPGYQLQTLPGLRDT [T96K]
